According to article doi:10.1101/368936:

What was measured:
[1] = target: Mdb1-pT113 phosphopeptide (fluorescein-labelled) (S. pombe); test: fluorescence polarisation
[2] = target: RHNO1-pT202 phospho-peptide (human); test: fluorescence polarisation

Row | fold reduction of binding against wild type [1] [fold] | fold tighter binding than RAD9-pS387 [2] [fold] | Substance
1 | 20 |  | Rad4-BRCT1,2 K155E (domain or fragment)
2 |  | 10 | TOPBP1-BRCT0,1,2 segment (wild type, recombinant) (domain or fragment)
